Our source for the kcat values is paper doi:10.1101/426874v1.

Substrate in this data set: O=C(O)C(=O)O
Nature of the data set: purified protein. To be noted: typical values given as a range; decarboxylase activity; Mn enzyme.

B1: Oxalate Decarboxylase (OxDC), WT, His6-tagged (Bacillus subtilis subsp. subtilis str. 168) (protein)
chain: MKKQNDIPQPIRGDKGATVKIPRNIERDRQNPDMLVPPETDHGTVSNMKFSFSDTHNRLEKGGYAREVTVRELPISENLASVNMRLKPGAIRELHWHKEAEWAYMIYGSARVTIVDEKGRSFIDDVGEGDLWYFPSGLPHSIQALEEGAEFLLVFDDGSFSENSTFQLTDWLAHTPKEVIAANFGVTKEEISNLPGKEKYIFENQLPGSLKDDIVEGPNGEVPYPFTYRLLEQEPIESEGGKVYIADSTNFKVSKTIASALVTVEPGAMRELHWHPNTHEWQYYISGKARMTVFASDGHARTFNYQAGDVGYVPFAMGHYVENIGDEPLVFLEIFKDDHYADVSLNQWLAMLPETFVQAHLDLGKDFTDVLSKEKHPVVKKKCSK
For B1, the kcat is 50 − 60 s^-1.
